According to the DeepSol protein solubility set:

Test: soluble on expression in E. coli; label from the status in PepcDB or PDB records

Sequence	soluble on expression in E. coli
MAHHHHHHMEVRRIAPIGRAAVLVMKNVSGNMWAGYSDGAIRVFDHVTQKVLRQSTQHTAAVYAMCAADGYVFTGGADGKVYQWMADDLHYSHMYYGHRNAVRSLTTYTDQKSRCRYVVSGSDDGTVKVWEATVAKTSGTPRKDGGCVSTLDGQGRCVLSILVLEDAAELWAGSEDSVIRVWDLSSMTVTTVITGHRAPVVTLLKVGDTVWSGSKDGAITITNRFSKDIVHQASQPPANRSAAPGGQRSSVSILPVTRTVVYEVWATAVDGSWQCWNFTVPEGVKSYVEEADVLKGGWCPSHSRPQRLSRVGQRSSRNVRSSSVNEYSENGLHSASARARRSDEKLRASVAQTRRTVAVLLAGSKVHQGLGAHNGNGFAHRNEAASVDIVDDDDTPLDIVAESIRNDHTAETQREVQLKQAALAKERRKSAKLRAALEMMCKDPVAIAEEGAKKVFRRTDSLVIAETLAMERQSGKLGSPTTEKLVGVSSQLELLKAQNKAMAAAVTESKKVPD	soluble
MGSDKIHHHHHHMMTISNGNLRVDLRLIADMVEPGSRVLDVGCGEGALLDWLGRTKNVDGRGIELSMAGVSAAVSHGLSVIQGDADTDLKDYPSGAFDYVILSQTLQATYAPRTVLSNMLRIGRRAIVSFPNFGHWRVRLHLLTHGRMPVTDTLAYEWYDTPNIHFCTIRDFLDLCRDLGIRVERSIPLDRSGRTMAIPSCEGIANLFADQGLFVLSREG	not soluble
MSLGYDVIFVSGVAKARFRRRMRKLVLCITALLLSGCSREFIEKIYDVDYEPTNRFAKNLAELPGQFQKDTAALDALINSFSGNIEKRWGRRELKIAGKNNYVKYIDNYLSRSEVNFTEGRIIVETVSPIDPKAHLRNAIITTLLTPDDPAHVDLFSSKDIELKGQPFLYQQVLDQDGQPIQWSWRANRYADYLIANHLKVKQVDFKKAYYVEIPMVKDQIDIRGYKYASIVRKASRKYDIPEDLIYAIIKTESSFNPYAVSWANAYGLMQVVPKTAGRDVFKLVKNRSGEPSPEYLFNPENNIDTGTAYFYILKNRYLKEVRHPTSLEYSMISAYNGGTGGVLSTFSSDRQRAMRDLNALQPNQVYWALTKKHPNAEARRYLEKVTKFKKEFNAGEGHHHHHH	not soluble
AEWSGEYISPYAEHGKKSEQVKKITVSIPLKVLKILTDERTRRKVNNLRHATNSELLCEAFLHAFTGQPLPDDADLRKERSDEIPEAAKEIMREMGINPETWEY	soluble
MGSDKIHHHHHHMKAAIITKYKQITPMVTEVPVPTIAPTDVLVKIVAASVNPIDLKTKDGDLRLLLQYTMPLIMGSDFAGVITAVGDQVPDFKVGDAVYGRAPKDRIGTFAEFIAIDHQAIALKPANLNFEEAAAIPLVGLTSYQALHDIMNIQPGQKVFIPGGSGGIGIIAIQLAKYFGAYVATTTSAKHFDLVQSLGADKIIDYHQQDFTDVLSHYDAVLDTRGGQSLEAAFQIIKPGGQIVSIAGLPNARFGKDYGLPIWKQWLLGLATRKLSRLEQQAQATYSFLFMQPSGQQLVRLRQLIEQGVIKPVVDRIIPLTDINAALEYSHSGHTTGKIIISIQPN	not soluble
MRGSHHHHHHGSDLGKKLLEAARAGQDDEVRILMANGADVNAEDTYGDTPLHLAARVGHLEIVEVLLKNGADVNALDFSGSTPLHLAAKRGHLEIVEVLLKYGADVNADDTIGSTPLHLAADTGHLEIVEVLLKYGADVNAQDKFGKTAFDISIDNGNEDLAEILQ	soluble
MGSDKIHHHHHHMTNRCLYCYEPLVDGEMDYHAKCCRKLFGTPQAPILPYTSSEVRALADEVVRSQTTVTGVQPKLSLDFDQMSNSPKRFTIVGLWGRFILKPQTERYSHLPELEDVSMHLAEIAKIETVPHGLMRFSDGELCYITRRIDRTGQGEKLPMEDMCQLSERLTEYKYKGSHEQVAKLISKYSSVPKLDLVKYWEQVLFSWLIGNADMHLKNYSLYAPEGNEYQLTPAYDLLSTALVIPEDTEELALTLCGKKRKLTRQHFLEAMTASGLDEKVCDNIFARFQHILPEWEACIRQSFLPTEMQRQYIEFILLKFSQI	not soluble
